From patent US20220403031A1 come the findings set out here.

In test [1] the target is HER3.his (Homo sapiens (Human)) (UniProt P21860). Description: non-specific binding ELISA; antigen coated at 2 ug/mL, antibody at 10 ug/ml.
A further test addresses OX40.his. Described as above.
The target of test [2] is PD-1.his (Homo sapiens (Human)) (UniProt Q15116). Described as above.
In test [3] the target is 4-1BB.his (Homo sapiens (Human)) (UniProt Q07011). Described as above.
The target of test [4] is human PD-L1 on CHO-K1 cells (W315-CHO-K1.hPro1.C11) (human) (UniProt Q9NZQ7). Description: FACS affinity on human PD-L1 cells, quantitative beads. More on the design: Bmax: unit not given here.
Sequence of human PD-L1 on CHO-K1 cells (W315-CHO-K1.hPro1.C11) (human) (Q9NZQ7 19-290): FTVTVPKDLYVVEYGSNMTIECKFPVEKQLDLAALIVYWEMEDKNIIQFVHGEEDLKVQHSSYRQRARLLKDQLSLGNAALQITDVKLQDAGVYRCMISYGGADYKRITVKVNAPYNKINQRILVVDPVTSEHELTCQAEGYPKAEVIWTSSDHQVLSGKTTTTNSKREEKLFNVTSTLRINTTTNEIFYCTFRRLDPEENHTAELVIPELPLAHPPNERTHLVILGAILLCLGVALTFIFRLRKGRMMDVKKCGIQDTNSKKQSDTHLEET

Sequence of 4-1BB.his (Homo sapiens (Human)) (Q07011 24-186 limits assumed): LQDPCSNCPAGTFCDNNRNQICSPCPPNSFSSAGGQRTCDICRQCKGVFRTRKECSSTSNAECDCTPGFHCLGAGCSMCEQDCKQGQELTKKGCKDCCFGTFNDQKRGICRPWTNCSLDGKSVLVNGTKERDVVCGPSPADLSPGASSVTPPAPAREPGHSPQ
Sequence of OX40.his (P43489 29-214): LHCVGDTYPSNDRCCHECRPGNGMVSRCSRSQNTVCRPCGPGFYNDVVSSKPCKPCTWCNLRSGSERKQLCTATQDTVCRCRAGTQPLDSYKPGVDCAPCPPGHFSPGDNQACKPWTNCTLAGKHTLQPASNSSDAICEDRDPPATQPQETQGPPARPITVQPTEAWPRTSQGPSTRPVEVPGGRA
Sequence of PD-1.his (Homo sapiens (Human)) (Q15116 25-170 limits assumed): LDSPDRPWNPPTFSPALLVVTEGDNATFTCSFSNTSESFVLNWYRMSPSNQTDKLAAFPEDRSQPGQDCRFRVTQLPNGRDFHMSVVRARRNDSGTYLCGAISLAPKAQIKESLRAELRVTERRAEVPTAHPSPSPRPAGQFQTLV

B1: AP3R2-1A3-z12-hIgG4 (Fc fusion, not shown: a dimerising Fc or GST)
chain: EVQLVESGGGLVQPGGSLRLSCAASGHFSNLAVNWFRQAPGKERELVAGILWSGGSTFYADSVKGRFTISRGNAENMLYLQMNSLRAEDTAVYYCNTGTNWGQGTLVTVSS
With B1, the Absorbance at 450 nm in test [1] amounted to 0.07; with OX40.his it was 0.06; in test [2], 0.06; in test [3], 0.07.

B2: BMK9.Fc(IgG4) (Benchmark antibody 9, variable region of KN035 conjugated with human IgG4 constant region) (Fc fusion, INN chains, looked up)
VH: QVQLVESGGGLVQPGGSLRLSCAASGKMSSRRCMAWFRQAPGKERERVAKLLTTSGSTYLADSVKGRFTISRDNSKNTVYLQMNSLRAEDTAVYYCAADSFEDPTCTLVTSSGAFQYWGQGTLVTVSS
modifications: VHH-Fc IgG4
As for B2, in test [4], the Bmax is 2.8e-10 and the Kd amounted to 0.24 nM.
